A protein production outcome set (Wang et al. 2014)

Assay: label from the status in PepcDB records
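Note: failed if final PepcDB status was selected cloned or expressed and not failed if soluble or beyond.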

Sequence | protein production
MRILLVEDDELIGELLVKSLTSQHYTVDFAKDGQEGWDFAELYTYDLILLDLILPKLDGISFCRQLRASGNQTPILLLTSQDTSITKVTGLDAGADDYVAKPFDFQELLARIRALLRRGGSALPPLLEWNNLRLDPSTCEVACDGKLLHLTPKEYGLLELFLRNSHRIFSCSALIDQLWSFEEPPTEDTVRSHIKGLRQKLKAAGVVEDPIDTVYGIGYRLKPVQPGREEELNTEKVVAAIANPVENEVRKVWEDVVEKIEQRVAVIEQASHKLLQNKVSEEILSKAKVEAHKLAGSLGMFGSDEGSQIAQEIESLLDNGKKLKASGGKHLGQVVEALHQELENLKSGYKTELSVVETKADDRPLVLVIDQDQELVRESRSQGSEAIAPGQLTDARVMIVDDDPQILTTLQTLLSAWGIKVYTLPHPQGFLAARLGNLAEIDTLTLVANRRKSTQELNHYLQWCHTHQQTLSFAVVKLDGLKQINYNYGHEIGDRVLSQLGELLRQMFHSQDVVGRWGGTEFILGMAGITKGEGVRRLGELLKTFRQIEFINTSNQSFHATLSAAVVEYPQDGDKLEVLYQAADIVLHQSKATGRNRVLSS | failed
MRYLFSLLFLLAYGSTVAQQPPMLPRDAAIEAKIEKLLEQMSLDEKIGQMVELEIGMITYRDPRYVVEKLARMSEQELADTLRRFGLDKQHNAAQLALTTPEDKQNKEKLMRLYWVSNDIQSKLPFRLDEAALDSVVGKYKVGSILNAPQTTAQTPAMWNQVVKTIQDVSIKHLGIPTVYGLDQMHGTTYSTGGTLFPGAINMAATFNRDLVYKMGEIVAYETRACNVPWIYGPCIDLGRMQAWSRQYESFGEDVFLSSEMGAAALRGMQGDNPNHIDAYHVAGCLKHYFAYGAPYNGLDRSPARLSYEELREKQFAPFLRGIREGALSIMTNSSNVNGVKGTVNREFITGWLKEGLGWDGMVVTDWGDIDGAVTSDRVVPTAKEAIRLAINAGVDMMMVPSQFTYNGLLKELVEEGGVSMERIDDAVRRILRLKHRVGLFEQPNTFAKDYPKFGSEEFAAYSRQAALESIVLLKNDSVDSQSRLLPIKQGTRLLVCGPNANSMRTLNGGWSYTWQGDGADREEFTGHFNTIYEALRNKFGSNHVTLVEGVSYDSKRWAMDHADNIGDAVAAAADNDYVIVCIGENTYAETRGNIADINLSTNQKNLVKALAATGKPIILVLNESRGRAISDIEPLAKAVVHTMLPGNYGGDALAELLAGNENFSGRLPYTYSAQPNAMVNYDYKASEVRETISGVYDYNAKTYEQWWFGAGMSYTTYTYSNLRADKNSFTKDDVLTFTVDVKNTGAMAGKETVMLYASDLYASLMPDNRRLRGFEKIVLAPDESKTVTFRIKASDLAFMGTGKKWTLEAGEFNIACGDQSVSIHCTEDYTWEEENIPDN | failed
MTRMQLHRLRYLLADVFGIVASYLSYNTLRYLTEEQERIYSTLSEYLFNAKSLWVGILYLLFWLSLFALSGYYNKPIAKSRISELLTTVASVLVGSVVVFLLLVVDDIVHDTALYLRLFFMMVATVLPWVYFPRLWVTTFGIKERKKTKGYHRVLLIGSGTIAEETASWLKSVNDMATTRLHFVPPTTREGFEQSLKSFATLVAEAVQESKPHQIILAVDCPDASFISLLLYQLYPFHMPVCVPMRSMLFAGAKVNVQGMKGEPMVDMTATNMSECAKSIKWFADRLFSLLMLILLIPVYAVIAVLVKRSSRGPVFFGQERIGLHGRPFTIYKFRTMYLDAEKDGPSLSFDGDSRVTPIGRILRKYRMDELPQFWNVLRGDMSFVGPRPERAFYIRQLVERAPYYYLLHNVRPGITSWGMVRYGYASTPDEMLERLQYDFLYYENMSLRLDIEVLLYTCQTIFKGLGK | failed
MKKAKLIFKDNTPFSLDFDDFYFNFKDGLNESKFVYTHSFEWKNQENFIIAESGFGIGLNFFLTLKRFLETTPSKRPKKLFYISVEAFYIEKEQLREIYQKLEFYEEFKELLEQFLKFYPKAKEGIYRFYFEDCFLDLVFEDIAVLKELDFKADVWYLDGFSPNKNSQMFDENLIFEVARLSKKNTQICTFSSASFLQKNLKKYGFRVEKTKGFRKREMIKAYLENELEFKDKEAYFSRTFSSLKNKKVAIIGAGISSAVLAYELSLRGFEIDIFEKHLELGKGASGNESGILSSLILKPKVNLGEFSELSFIEASRFYRQILDLEFKGVVEFAHNDLMQERFDTQRENVLFKISKNQAFLEEGGVIFPKKLVKNLFEKSKACIYFNHEFQAYKFENGCFSLKFKNDVVKSDYAVLIYAMGADAKDFVFYDEMKLSKVRGQVTHLKPFLDTPFPLSSKAYICPVKDDLQVIGASYDRLNASLESKEEDDKQNIENIADFMDKNTKLEIIGSKVGFRSYSSDRFMIVGNAYDEAFYKEEYKALLWTKNKEQKPAKMSCNLYFNFAHGSRGFSTSVLAARYLCALINNEPLCLEKKYIHAIHPARFLIRKLKKGL | failed
MNRLDQLGIRINLICNVFDKWIGQQDLNYNLFTVLYTLATEGSRTQKHIGEEWSLPKQTVSGVCKTLAGQGLIEWQEGEQDRRERLLSLTEKGKVHAAPLTENAQEFSDKVFSTFGDKRTTRLFADLDALAEVMEKTISENKK | failed
MRFPPLLFFQDSEAVKRIANSVRGTKDDDAEIKDHSMRFIRNAISGDQQKEILNVDMLRYIAWVLVALNENIVTARTVIRERDAVEDALKNQQPEDIENFADDLKINMKYNRDLERFEIGVFDFVKYASRVTGSQYRLSNQSVIKGIVYCQKDVAIKILRESFVSNMFKVIDSIDQTTASPVLSDQTDSINELREFYKKSVYAKLTIGRGNTKAFPPCMKEIIRNLHEGINVPHMGRLAIASFLHKVGYTEDEIVEYFRNAPDFDESITRYQIKHLSGEISGVEYSPPKCETMRSNHLCFMDDDKLCHQDWMKHPLTYYEVKSRRLGLEHHHHHH | failed
MPQDVMTANHVSPSNDAAAPSALDLARNQRLSLMDLLSVSEALNAAGQQAAAAELYKTWVAFNDNNPTIHLAYFNYAVMLNQLGDRAGAVQAFRACLKANPEFAPGHINLGRALEDAGLIGHAVEQWSHYAEVTKNVDAETIGHRHMTLQNMGRVLEGAGKLEEAETALLQAFELRPELPEAGQHWASLRQRQCKWPVLAPSNHISPRKMLDAMSSLTLSCYADDPMFQLAKAYRLSKTLIGARPDLSRFPRRSPKQKSGTGQRLRVGYLSSDLRDHAVGFALCEVLELHDKDSLEVFAYYCGNVRGTDSTQERIKAAVHCWRDIHGVDDATAASQIIADEIDILIDVNGYTKDARAKIFAYRPAPVIVSFCGYPGSMGSPFHQYLISDGYMIPPENEIYYSEKVLRIACDQPLDRKRPVAARPSRADVGLPEDAFVYASFNGMQKITENCFARWMTILSETPGSLLWLLTGDDDVNQRLRDLAEKSGVASERLVFAPKAQNPQHIARIGLADLFLDTFPYGAHSTASDAITSGLPVLTMYGKTFAARFCGSIVTAAGVPEMICSSPEDYVARAIGFERDRQSLLEVRESIARQRETSVLRDIPALARRLEELFWQMQGECERGETPVPDLSNLDIYYEAGAEALLENIEFEDEQSYRERYLKKLRQWHDYAPIPYDRRLWQNPDN | failed
TYIDGSIKRKHLVQNNQPVTLYWLRFQKSIVDTNKQDLQQSLQINTGQEPKTQALAQQILKQSDADPARYVKNILDWYRQQDFIYTLSPEQLNGNRTDQFLFQTRNGFCEHYASSFVLLMRYAGIPARVVIGYQGGQLAPDAQSLEVRQLDAHAWAEVLIDDSWHRIDPTAAIAPARLEHGMQYYLQEDRRIWGSEQHLFWKQQNFHLIQSFRVWSDYLQYQWQSKVIGYNVDQQKSFFSKLGIRSVYSAIVIMLLSICGLVIVYGIYVAYKRRGQSSFIEYQISRFQRKMSPSMKKQKSETFKVW | failed
MEFKDYYATLGVEPSAGDAEIKTAYRRLARKYHPDVSKEAGAEDKFKAINEAYEALRDPAKRKAYDQLKAQGFRPGDEFQAPPNYGGGQGFDFEEVFGNGGAGGGFSDFFESLFAGQRGGRPRGPGAGPGAGAGPQARGDTRAKLAVPLEAVYSGDSVRITINGKQLDVRVPKGVQPGQVIRLSGQGNGGGNLLLEIEYAAHPHFEVDGRNILYTLQVMPWQAALGTTISVPTLGGSVELKVPADSDAGRKLRLRGRGLPGTTPGDQIVELEILAPAPTDDAQKKAYRNLAKAFGETVS | failed
MSLKYGHVAWIQQILDGSYADAMNTLKNITVDDSKKGESLSECELHLNVAKLSSLLVEKDNLDINTLRKIQYNLDTIDAEKNISNKLKKGEVQICKRFKNGSIREVFNILVEELKSTTVVNLSDLVELYSMLDDEESLFIPLRLLSVDGNLLNFEVKKFLNALVWRRIVLLNASNEGDKLLQHIVKRVFDEELPKNNDFPLPSVDLLCDKSLLTPEYISETYGRFPIDQNAIREEIYEEISQVETLNSDNSLEIKLHSTIGSVAKEKNYTINYETNTVEYEGHHHHHH | not failed
MKRVLVLGATGRTGNFVIKELSKYKSIQLIAGLRSQKDKERLPKINAAIETVVIDIADVCSLRKALTDSDIVVQAIRLRGDISENALIQLDQRIHQAFNPSRKTHLVTVGGAGALKLEANQRFWENEYFPRQTLPRGIAHARLRDYLEKSFFNHTWTYLIPPPVYVAEGARTGSYNRYSSAQKEDFFLSKSISYADFALAIGNAVMEEWQGVYLIAEKELEHHHHHH | failed
NIEQLSQSLEHMANQAATLDRQRGEHHVPLFDERLFSCRSRLLTPCVKEAKSTLDAIIREQNENKLTALRAEYLTERLVAQIGAIQREISTTKIRKNEIKHSSHFRKPINVLYQELAQHQEWARRLREMVLEKERAVETAPSFMRAEAQKVLLATEQRLARCEAALLKLENQITHREK | failed
MKHFLTLRDFSKEEILSLVNHASELKKEPKKLLQDKTLAMIFEKNSTRTRMAFELAITELGGKALFLSSNDLQLSRGEPVKDTARVIGAMVDFVMMRVNKHETLLEFARYSKAPVINALSELYHPTQVLGDLFTIKEWNKMQNGIAKVAFIGDSNNMCNSWLITAAILGFEISIAMPKNYKISPEIWEFAMKQALISGAKISLGYDKFEALKDKDVVITDTWVSMGEENEKERKIKEFEGFMIDEKAMSVANKDAILLHCLPAYRGYEVSEEIFEKHADVIFEEARNRLYVVKALLCFLDNQRGRE | not failed
MAQATSPIELALTTGRGHQAEVRLAKPDGSYLPVIASCNPLNRSDGGIVLTLNDISELRSAERAVSDRAEELATLNRELKETSQATTRLVKLGELLQACVTFHEAFSVVGSAMPDFFGGLSGTVHLTSASRNLVEEMAHWGAVRSSVGQFAPEDCWALRRGQEHVAGPGMLTPRCNHITENGGRGYVCMPLAAQGETLGIVHLCEPDAADRPDWLTERQQILRGVVDTLALALANLRLRETLRQQSIRDPNTGLYNRRYLEETSSRELRRMERSGQPLAMIMLDVDHFKQFNDTFGHEAGDLVLKQVAATLLDHARESDVVSRYGGEEFALMMPGTSLADAAERAEALRKAIKQLHLTHRGRTLGTITASFGVSAFPELGASWVEIVNAADRSLYQAKADGRDRVVAGLGRADPQWDLSTASQSVA | failed
MKYLHFTRPTIKVIFMINSIKTLLLIATLAILSACGWHFQQSVTMPSEWRTLALESDDSYNDFTVIMRRKLQENQVNVVNLEQNIPILRINKQITSDQVASIFKHGREAEKLLMLEVEATFRLANGESYPINAKVNRTFFDNARAALAKSEEREVIWNDMREQVARQLIVKIIALQNQIKRKLEHHHHHH | failed
MSLFRSRPNALSQRSVIASSSELASLAGRDILKRGGNIFDAALAVSAMLCVTQNNLCGLGGDLFALIRDENGQIMDLNGSGQASRAVSIDYYESMGLTKIPERGPYAAITVPGIAGSWDEIFRKFATMDIADILEPAIRTASAGFPITQNYSDSIARSAPVIGQYRGWSSIFMPNGSVPVAGEILKQPDLAESFRLMSEEGFRSFYDGSLADIIIAGLEGTGSPLSDRDLRVYRPLIGKPVFTDLDEFRIYETSPNSQGITVIEWIRGMESHGYDSRTMWEAKIEDIFETMEEAYDKRRKITDPSYMNIAQHDSANGKKDGLPKRDHNDIGDTTYFSISDSEGRSVSIIQSNYMGFGSGIVPKGTGFVLQNRGSYFTLQRDHPNALMPGKRTFHTLAACMVEKEHDLYASLGSMGGDIQPQVQMQILMEILKDNTDPQAILDKPRWTEPYTIYEAPGAVYVESEELYRNVSKQISGRKVVLRDVSQEFGTAQITTLIRGDVVVGAADPRGDGIAIPYSEGHHHHHH | not failed
